The text below walks through data of the supplement of paper PMC12042874.

± gives the uncertainty stated by the source.

A short description of this series: amyloid nucleation score (Sup35N fusion, yeast selection) (log enrichment); library NNK1; higher = more nucleation; inactive = no reads after selection. Put shortly:
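In psi-negative yeast, Sup35N fusions carrying peptides of 20 random codons were induced with 100 μM copper sulfate for 24 hours. The cells then grew 7 days at 30°C on medium lacking adenine and uracil, and plasmid inserts from input and output were Illumina-sequenced, excluding sequences with under 100 input reads. Nucleation score is the DiMSum log enrichment of output over input reads, centred on the mode score of non-aggregating sequences.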
With LNVGV, the amyloid nucleation score is -0.215 ± 1.7.

Turning to RVYLFNYICGGLDFFLRPTV, the amyloid nucleation score was found to be 5.37 ± 0.081.

Turning to KDCDMIGDSVYGSKFVTREM, the amyloid nucleation score was 0.503 ± 0.34.

DFFLIFWWDSFSAGVCQMNS returned an amyloid nucleation score of 0.356 ± 0.51.

RCFECEGALV: the amyloid nucleation score is -0.08 ± 1.1.

FRGSLIFSISVIKVISVLSE displayed an amyloid nucleation score of 2.11 ± 0.14.

As to LRKNSPTFRGSPCQQWYVER, the amyloid nucleation score was determined as 1.27 ± 0.56.

GFYFSYSWVRRSRNSKSMAS registered an amyloid nucleation score of 0.418 ± 1.

The substance IWMLELSGFMKMVQGGHQVG showed an amyloid nucleation score of 3.06 ± 0.14.

With SFLDMGFEAVNFGVVPSIMR, the amyloid nucleation score came out at 0.479 ± 0.48.

Substance KFLLLSCYIEWRLMSVLAKA had an amyloid nucleation score of 0.968 ± 0.69.

On to ASLLSGQK, for which the amyloid nucleation score was 0.358 ± 1.1.

IWLFFFPMSLRFASYWTGLL yielded an amyloid nucleation score of -1.1 ± 0.81.

Turning to ENKLNSPPWMLSLFTFLIVV, the amyloid nucleation score was -0.242 ± 0.66.

Substance MMSSEVLPINSCIRSWANAL registered an amyloid nucleation score of -0.431 ± 0.29.

Regarding RGLTYVRVVGLARIGSACSV, the amyloid nucleation score was 0.335 ± 0.53.

EVAFRVTCCSCWLISRNVGR came in with an amyloid nucleation score of 2.77 ± 0.15.

In turn, VSDHT had an amyloid nucleation score of 1.02 ± 0.47.

With IGLMRLC, the amyloid nucleation score was -0.608 ± 1.2.

With VRGSVRCNVDYLICVYVHR, the amyloid nucleation score is 1.46 ± 0.51.

On to SSNRLSSMQG, for which the amyloid nucleation score is 1.09 ± 0.38.

The substance INFARPVTILTYATFSVFGN registered an amyloid nucleation score of 4.9 ± 0.082.

Consider WVLAVRTSNLCRRGMLYKL, for which the amyloid nucleation score is -0.662 ± 0.45.

In turn, IGGVFALHCRMNIAPGSHTL had an amyloid nucleation score of 2.38 ± 0.14.

Substance GRDSIRCLNTTEASKLYGGL had an amyloid nucleation score of 0.609 ± 0.64.

Regarding PRSANCMCDYDRTAM, the amyloid nucleation score amounted to 0.316 ± 0.34.

In turn, VYSRSWPGFLKWLLASIFF showed an amyloid nucleation score of 0.694 ± 1.2.

Substance GIDVCWSFFILYVWERVIRG returned an amyloid nucleation score of 0.337 ± 0.36.

Consider FSKCSFT, for which the amyloid nucleation score was -0.169 ± 0.69.

Regarding TFPGDGRFPKVSKVYDPVLE, the amyloid nucleation score entry was “inactive”.

Turning to HTWMSLRGVAFTCQ, the amyloid nucleation score was -0.13 ± 0.3.

For YLPTVIPVFI, the amyloid nucleation score was found to be 0.125 ± 0.98.

As to YIFSHDKGMRR, the amyloid nucleation score was found to be 2.49 ± 0.25.

The substance GRMTILSVNSS gave an amyloid nucleation score of 0.328 ± 0.46.

Substance VWGDRWTTVSGRSAEYRTKS registered an amyloid nucleation score of 1.34 ± 0.15.

As to CHFSYSI, the amyloid nucleation score was found to be 0.558 ± 1.1.

For the substance VEGALGYGCASC, the amyloid nucleation score worked out at 0.768 ± 0.65.

Turning to FTLYYFLSC, the amyloid nucleation score is 0.406 ± 0.56.

Substance MNVGCSVVWIKCLNACTSKQ gave an amyloid nucleation score of 6.168 ± 0.06.

Consider WEYEAGNFDSVMMVLLLSCY, for which the amyloid nucleation score is 1.25 ± 0.61.

The substance GHLCSLSSGFN gave an amyloid nucleation score of 0.69 ± 0.24.

The substance LVFLTYSSASARIPLRI showed an amyloid nucleation score of 0.267 ± 0.29.

With IDHNLSGLVC, the amyloid nucleation score was 0.544 ± 0.97.

VSVKSNGWMSWWLSWQVPKH: the amyloid nucleation score is -0.147 ± 0.63.

HDICTLWILSAL showed an amyloid nucleation score of 0.602 ± 0.78.

Substance PFQYADGTFF returned an amyloid nucleation score of 4 ± 0.15.

The substance LLRWLRTVVSGGCVSVNLVE came in with an amyloid nucleation score of 0.034 ± 0.28.

On to VPCMWRFTHVSKYEGKSRTL, for which the amyloid nucleation score was -0.452 ± 0.42.

In the case of FIFWGDLFWV, the amyloid nucleation score was -0.992 ± 0.32.

In turn, GTSVN returned an amyloid nucleation score of 1.08 ± 0.17.

HYSHAWTVSRLMWNRDERGA showed an amyloid nucleation score of 1.59 ± 0.2.

Take LNRVFEDHWVLTLAVLHTSR: the amyloid nucleation score result is “inactive”.

VVTQLLEFVSITSEGWSQHM registered an amyloid nucleation score of 2.57 ± 0.096.

GVLLGVTSFEFFMGTLEVAW yielded an amyloid nucleation score of 0.188 ± 1.

With AEHNYVRRELAGEPNLV, the amyloid nucleation score was determined as 3.11 ± 0.095.

With SKSYFSIV, the amyloid nucleation score is -0.361 ± 0.39.

As to KFIVMIE, the amyloid nucleation score came to 0.386 ± 0.22.

Regarding YWTSIHSLNTSIP, the amyloid nucleation score was -0.229 ± 0.62.

For the substance ILKELSKPGVQPVVS, the amyloid nucleation score is 0.575 ± 0.8.

Take VLIWPGRRNSARSYWSSSGL: the amyloid nucleation score is 1.21 ± 0.66.

As for FFLLIFSVRGNPFFIKW, the amyloid nucleation score is -0.153 ± 0.66.

As for QYIVW, the amyloid nucleation score is 0.142 ± 0.32.

For LVPVWARLR, the amyloid nucleation score was -0.686 ± 0.65.

For the substance FIFCAGCVENNTSSPK, the amyloid nucleation score was determined as 6.224 ± 0.059.

For the substance SYMLVRDTLVLRCSACLLAG, the amyloid nucleation score entry is “inactive”.

As for VNDWALVLSNLDSNVLSSRT, the amyloid nucleation score worked out at 0.566 ± 0.24.

Consider FSMGQQMFVLVLSCFLVLWC, for which the amyloid nucleation score turned out to be 0.832 ± 0.65.

In turn, TASNHVVLSHPDSGILGIRA displayed an amyloid nucleation score of -0.278 ± 0.42.

FGSARGHSGY: the amyloid nucleation score is 1.52 ± 0.18.

For the substance YSVLTFADLYMVSMS, the amyloid nucleation score entry was “inactive”.

As to AGLWTLRQMWWFTWGSIDII, the amyloid nucleation score result is “inactive”.

In the case of SYEFVVRSWLSLYLINFKSS, the amyloid nucleation score entry was “inactive”.

In the case of FWIFRVLSINANTELSWDIV, the amyloid nucleation score is -0.631 ± 0.32.

VARFCNGYTHNIAMCTGIQR showed an amyloid nucleation score of -2.44 ± 2.4.

As for KNAVSSGRSGKITRR, the amyloid nucleation score is 0.231 ± 1.4.

For the substance FSSLWDGLLY, the amyloid nucleation score turned out to be 1.16 ± 0.69.

The substance RNMLELSFWCYEMKNSSSWS returned an amyloid nucleation score of 1.15 ± 0.24.

VFRWRNKLRNNLCRGKYYWT gave an amyloid nucleation score of 2.08 ± 0.43.

Regarding SLSPWWIHANPWWPYMSNQV, the amyloid nucleation score result was “inactive”.

In turn, LARTMYCYIVSEKVLWSGVG displayed an amyloid nucleation score of 2.15 ± 0.1.

The substance NNPEINFYKVWAIKSYF had an amyloid nucleation score of 2.83 ± 0.13.

The substance QFSHCWMSRRSGVNSAGRSG gave an amyloid nucleation score of -0.238 ± 0.39.

FCSNPAGWSSWSPE: the amyloid nucleation score stood at 0.182 ± 0.9.

Regarding LLLLVRFYGSGSPHSGAEPI, the amyloid nucleation score is -1.14 ± 1.5.

Regarding MERPGNCVGWRRCPLHVTNG, the amyloid nucleation score is -0.292 ± 1.2.

The substance TIVLLNCISIRLSIRFMFIP yielded an amyloid nucleation score of -0.251 ± 1.

Take NCNLSQWLIRQPKRAVSTHT: the amyloid nucleation score was 0.243 ± 0.33.

GSHTGEFRYVF returned an amyloid nucleation score of -0.83 ± 0.42.

In turn, YDRVLNLSDSWCTNAAPWWG displayed an amyloid nucleation score of 0.394 ± 0.43.

Turning to NGFDTKYSLEGLGYSWPMLV, the amyloid nucleation score came to 0.407 ± 0.41.

HWLSAMIGVPEHGH came in with an amyloid nucleation score of -0.121 ± 0.33.

Substance TCCNDDKRYIWCIYSRAKMN registered an amyloid nucleation score of -1.55 ± 0.42.

Regarding CAVLLGSIVHMLFAYE, the amyloid nucleation score is 0.132 ± 0.61.

AGIQIGWVIHSLCSSELRLS had an amyloid nucleation score of -0.875 ± 0.69.

Substance RWFDYDESESVKSVHLNLVR had an amyloid nucleation score of -1.37 ± 0.89.

With VECLKV, the amyloid nucleation score amounted to 0.387 ± 0.52.

Regarding LWFSYATCICIPRIPSNC, the amyloid nucleation score was found to be 6.26 ± 0.071.

SVCTGRYPSRAHGEGASNTC came in with an amyloid nucleation score of 0.08 ± 0.66.

KEKWRMQICAPGKS gave an amyloid nucleation score of -1.24 ± 0.81.

On to TSIFDEMSHVEEVRRTMIRG, for which the amyloid nucleation score stood at 0.209 ± 0.35.

Consider KGYSSTYGRPSKHYCC, for which the amyloid nucleation score entry was “inactive”.

Substance TVNGLPN registered an amyloid nucleation score of 0.885 ± 0.92.

In turn, RFEIIYGWSTYVLDAGVSFQ yielded an amyloid nucleation score of 1.21 ± 0.13.

EFVGVGNIVPFTTSWLIMGR: the amyloid nucleation score was found to be 0.271 ± 0.2.

On to FMGFISACQRMIIIMYVFRT, for which the amyloid nucleation score is -0.126 ± 0.28.

Consider SVISRIKCRASRDGLHHGNH, for which the amyloid nucleation score was determined as 0.862 ± 0.28.

The substance AGFVYFPMYNKLMELFTRGI registered an amyloid nucleation score of 1.29 ± 0.66.

Take MLSVSWFAVAMVYMGMNNTC: the amyloid nucleation score stood at 2.04 ± 0.48.

VWEFD returned an amyloid nucleation score of -0.537 ± 0.42.

As for ISRSICKREVLQVDR, the amyloid nucleation score was 0.378 ± 0.51.

On to SMKCRNGILWFQRLVYLLLS, for which the amyloid nucleation score was -0.747 ± 0.56.

Regarding LVVFLNC, the amyloid nucleation score is -0.607 ± 0.39.

VWSILCMCNRSHLWVKSSKR showed an amyloid nucleation score of 0.988 ± 0.35.

NVHWRDVGGMLFRRNNIRRI yielded an amyloid nucleation score of 5.222 ± 0.052.

DNTGQVRIW: the amyloid nucleation score was -0.562 ± 0.62.

LSFLSSVSDLIKLSSIFYGY: the amyloid nucleation score is -0.264 ± 0.37.

In the case of SRLEHRFLICNPELYVNFFM, the amyloid nucleation score was found to be 6.799 ± 0.047.

The substance LFKLSLGCTYCSFA came in with an amyloid nucleation score of -0.292 ± 0.42.

In turn, LDHTTVWCWCGTGGLYRRCC yielded an amyloid nucleation score of -0.29 ± 0.31.

For the substance VSSFLLRSFRKCRPLCYIVR, the amyloid nucleation score was 3.89 ± 0.085.

As for SVGDVVYGEFLIAKQSAACV, the amyloid nucleation score amounted to 0.115 ± 0.44.

With RNFWF, the amyloid nucleation score is 0.078 ± 0.34.

ECRMYLLTLVARRSRNPDNC had an amyloid nucleation score of 1.03 ± 0.61.

AIHMEHCCFVNVQRILRFVV had an amyloid nucleation score of 4.68 ± 0.092.

For VVVIFLHGIWCGLRL, the amyloid nucleation score is -0.208 ± 0.75.

In the case of VGRMPNGYVVGINIGLSRRL, the amyloid nucleation score was -0.696 ± 1.7.

Substance DMSFRYLSGSVNLCVVHLRR registered an amyloid nucleation score of -0.244 ± 1.1.

Regarding LSCWLYNPGYCVSVEFC, the amyloid nucleation score was 6.906 ± 0.056.

With VCVGNAETYMERNYV, the amyloid nucleation score came out at 0.531 ± 0.4.

Substance HKHRKPSLNRVPGVGW registered an amyloid nucleation score of -0.78 ± 0.43.

Consider HMADTRVADCSQLLR, for which the amyloid nucleation score turned out to be 0.409 ± 0.81.

Substance AHSCDGPCRPHVTAVKALVL registered an amyloid nucleation score of 0.089 ± 0.48.

With ALKQPVYDGRGPRLGIGPRR, the amyloid nucleation score was -0.124 ± 1.

In turn, WYHSYCVVHSFWYATSPLNS yielded an amyloid nucleation score of -0.259 ± 0.33.

In the case of ILTVLLISMWVMNHLIFLGL, the amyloid nucleation score is -0.563 ± 1.4.

As to RGSYHRLWCI, the amyloid nucleation score worked out at 0.114 ± 0.72.

CLVVYHSRKAW gave an amyloid nucleation score of 2.64 ± 0.16.

Regarding KCHLFKHLL, the amyloid nucleation score was determined as 1.66 ± 0.6.

LWRNKTHISVLQRGQVYHQT registered an amyloid nucleation score of 0.182 ± 0.57.

In turn, LQILLLVSCLSQYAANKRRA yielded an amyloid nucleation score of -0.291 ± 0.57.

Regarding YTEQACDSVP, the amyloid nucleation score is -0.788 ± 0.89.
